Source: publication PMC3668541, “Production of recombinant 1-deoxy-D-xylulose-5-phosphate synthase from Plasmodium vivax in Escherichia coli^” (FEBS Open Bio, 2013)

Legend:
[1] = biological target: T1, P. vivax DXScc (DXS SH-2, DXS catalytic core) (Plasmodium vivax, UniProt A5K817); assay: DXS–DXR coupled assay; format: biochemical
T1 construct: gene PVX_082790; catalytic core, N-terminal first 210 residues (signal and transit peptide) deleted; codon-optimized gene in E. coli; theoretical monomer 103,921 Da; homodimer
T1 sequence (A5K817 211-1111): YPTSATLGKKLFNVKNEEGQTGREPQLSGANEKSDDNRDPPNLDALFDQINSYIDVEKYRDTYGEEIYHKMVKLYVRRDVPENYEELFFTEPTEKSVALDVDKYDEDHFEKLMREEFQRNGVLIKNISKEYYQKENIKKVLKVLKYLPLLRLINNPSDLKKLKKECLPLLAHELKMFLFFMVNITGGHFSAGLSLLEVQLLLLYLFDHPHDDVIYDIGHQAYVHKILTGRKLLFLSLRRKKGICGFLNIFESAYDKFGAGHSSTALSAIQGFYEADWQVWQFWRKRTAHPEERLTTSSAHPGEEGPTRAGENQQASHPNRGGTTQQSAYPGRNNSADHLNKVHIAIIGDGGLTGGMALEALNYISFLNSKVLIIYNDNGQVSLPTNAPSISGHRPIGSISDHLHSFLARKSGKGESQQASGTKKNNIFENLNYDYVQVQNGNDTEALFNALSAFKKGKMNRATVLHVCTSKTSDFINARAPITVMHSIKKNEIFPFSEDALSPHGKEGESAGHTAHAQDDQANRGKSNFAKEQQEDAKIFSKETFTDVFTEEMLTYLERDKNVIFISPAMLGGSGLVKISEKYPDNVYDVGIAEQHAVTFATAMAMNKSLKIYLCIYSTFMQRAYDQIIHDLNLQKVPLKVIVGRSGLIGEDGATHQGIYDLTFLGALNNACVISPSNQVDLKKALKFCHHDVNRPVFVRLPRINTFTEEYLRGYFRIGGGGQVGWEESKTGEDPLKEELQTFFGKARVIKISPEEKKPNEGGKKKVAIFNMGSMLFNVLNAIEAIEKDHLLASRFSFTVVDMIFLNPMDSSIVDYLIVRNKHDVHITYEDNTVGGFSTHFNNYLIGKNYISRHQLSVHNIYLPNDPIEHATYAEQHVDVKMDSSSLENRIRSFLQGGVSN

[2] = biological target: Plasmodium vivax 1-deoxy-D-xylulose-5-phosphate synthase catalytic core (DXScc) (Plasmodium vivax); assay: SEC; gel filtration chromatography under non-denaturing conditions of DXScc after Ni-NTA affinity chromatography; buffer and column not shown (Supplementary material)
DXS–DXR coupled assay [3] = substrate: CC(=O)C(=O)O; assay: DXS–DXR coupled assay; format: biochemical, Plasmodium vivax; settings: apparent; 0.1 mM GAP
Excerpt: (§1) DXS–DXR coupled assay on P. vivax DXScc (DXS SH-2, DXS catalytic core)

DXS–DXR coupled assay [4] = substrate: O=C[C@H](O)COP(=O)(O)O; assay: DXS–DXR coupled assay; format: biochemical, Plasmodium vivax; settings: apparent; 4.0 mM pyruvate
Excerpt: as §1

**Q.** With `O=C(O)C(=O)CF` [β-fluoropyruvate] as the molecule, how does the Ki [1] read?
**A.** 200 ± 100 µM

**Q.** Which stoichiometry N [2] does the source give for “Plasmodium vivax 1-deoxy-D-xylulose-5-phosphate synthase catalytic core (DXScc) (enzyme)” here?
**A.** 2

B1: P. vivax DXScc (DXS SH-2, DXS catalytic core) (Plasmodium vivax Sal-1) (protein)
chain: T1 sequence (A5K817 211-1111)
notes: catalytic core, N-terminal first 210 residues (signal and transit peptide) deleted; codon-optimized gene in E. coli; theoretical monomer 103,921 Da; homodimer
**Q.** Which Km (DXS–DXR coupled assay [3]) does the source give for B1 here?
**A.** 870 ± 110 µM

**Q.** What about the kcat (DXS–DXR coupled assay [3]) of the same molecule?
**A.** 9.5 ± 0.5 s⁻¹

**Q.** What about the kcat/Km (DXS–DXR coupled assay [3]) of the same molecule?
**A.** 11000 M⁻¹ s⁻¹

**Q.** What about the Km (DXS–DXR coupled assay [4]) of the same molecule?
**A.** 19 ± 4 µM

**Q.** What about the kcat (DXS–DXR coupled assay [4]) of the same molecule?
**A.** 11 ± 0.9 s⁻¹

**Q.** What about the kcat/Km (DXS–DXR coupled assay [4]) of the same molecule?
**A.** 570000 M⁻¹ s⁻¹
